{
  "source": "patent US20230085439A1",
  "about": "(UNIVERSITY OF GEORGIA RESEARCH FOUNDATION, published 2023)",
  "key": {"hMPV A1 F [1]": {"target": "T1, hMPV A1 F (human metapneumovirus)", "test": "ELISA on coated antigen, mAb titrated; EC50 box, key 1"}, "hMPV A2 F [2]": {"target": "T2, hMPV A2 F (human metapneumovirus)", "test": "ELISA on coated antigen, mAb titrated; EC50 box, key 2"}, "hMPV B1 F [3]": {"target": "T3, hMPV B1 F (human metapneumovirus)", "test": "ELISA on coated antigen, mAb titrated; EC50 box, key 3"}, "hMPV B2 F [4]": {"target": "T4, hMPV B2 F (human metapneumovirus)", "test": "ELISA on coated antigen, mAb titrated; EC50 box, key 4"}, "[5]": {"target": "hMPV F protein of hMPV A2 strain CAN/97-83 (human metapneumovirus, UniProt Q6WB98 19-539)", "test": "cell-based or functional assay"}, "[6]": {"target": "hMPV F protein of hMPV B2 strain TN/93-32 (human metapneumovirus)", "test": "cell-based or functional assay"}, "hMPV A1 F [7]": {"target": "T1, hMPV A1 F"}, "hMPV A2 F [8]": {"target": "T2, hMPV A2 F"}, "hMPV B1 F [9]": {"target": "T3, hMPV B1 F"}, "hMPV B2 F [10]": {"target": "T4, hMPV B2 F"}, "hMPV B2 F-GCN4 dFP 6R": {"target": "hMPV B2 F-GCN4 dFP 6R (human metapneumovirus)"}, "hMPV 130-BV": {"target": "T5, hMPV 130-BV (human metapneumovirus)", "T5 construct": "also called hMPV 130-BV F; hMPV F 130-BV", "test": "ELISA on coated antigen, mAb titrated; EC50 list entry 5 of 7 (marker of hMPV 130BV)"}, "[11]": {"target": "T6, trimeric hMPV B2 F protein treated with trypsin (human metapneumovirus)", "test": "ELISA on coated antigen, mAb titrated; panel hMPV B2 F trimer (trypsin), key 1"}, "[12]": {"target": "T7, monomeric hMPV B2 F protein treated with trypsin (human metapneumovirus)", "test": "ELISA on coated antigen, mAb titrated; panel hMPV B2 F monomer (trypsin), key 1"}, "[13]": {"target": "T7, monomeric hMPV B2 F protein treated …", "test": "ELISA on trypsin-treated monomeric and trimeric hMPV B2 F"}, "[14]": {"target": "T6, trimeric hMPV B2 F protein treated with …", "test": "ELISA on coated antigen, mAb titrated; panel hMPV B2 F trimer (trypsin), key 2"}, "[15]": {"target": "T7, monomeric hMPV B2 F protein treated …", "test": "ELISA on coated antigen, mAb titrated; panel hMPV B2 F monomer (trypsin), key 2"}},
  "note": "Where two headings read alike, the source gives them in different places.",
  "data": [
    {"binder": "MPV314 (antibody, V domains shown, also called mAb MPV314) VH: QVQLVQSGGGVVQPGRSLRLSCAASGFSFSDYGMDWVRQAPGKGLEWVAVISYDGSNQYYADSVKGRFTVSRDNSKNTVYLQMNSLRAEDTAVYFCAKDESRRYYYSSGIHSHWGQGTLVTVSS VL: DIVMTQSPATLSVSPGERATLSCRASQSVSRNLAWYQQKPGQAPRLLIFGASTRATGIPARFSGSASGTEFTLTISSLQSEDFAVYYCHQYNYWPPGTFGQGTRLEIK", "values": [
      {"measurement": "EC50", "setting": "hMPV A1 F [1]", "value": 0.096, "unit": "µg/mL"},
      {"measurement": "EC50", "setting": "hMPV A2 F [2]", "value": 0.102, "unit": "µg/mL"},
      {"measurement": "EC50", "setting": "hMPV B1 F [3]", "value": 0.039, "unit": "µg/mL"}
    ]},
    {"binder": "MPV201 (antibody, V domains shown, also called mAb MPV201) VH: QVQLVQSGGGGVQPGRSLRLSCAASGFIFSDYGMHWVRQAPGKGLEWVAVISYDGSNQYYADSVKGRFTISRDNSRNTLYLQMNSLRVEDTAVYYCAKDQGRRYYYSSGYLDYWGQGTLVTVSS VL: not shown", "values": [
      {"measurement": "EC50", "setting": "hMPV A1 F [1]", "value": 0.104, "unit": "µg/mL"},
      {"measurement": "EC50", "setting": "hMPV A2 F [2]", "value": 0.14, "unit": "µg/mL"},
      {"measurement": "EC50", "setting": "hMPV B1 F [3]", "value": 0.042, "unit": "µg/mL"},
      {"measurement": "EC50", "setting": "hMPV B2 F [4]", "value": 0.089, "unit": "µg/mL"}
    ]},
    {"binder": "MPV364 (antibody, V domains shown, also called mAb MPV364; hMPV364) VH: QVQLVQSGAEVKKPGASVKVSCKASGYTFTHDSIHWVRQAPGQRLEWMGWINVGNGDTKSSQKFQDRLTITRDTSANTAYMEVRSLKYEDTAMYFCARVDQYCIGGVCYGGKNWFDPWGQGTLVTVSS VL: SYELNQPPSVSVAPGQTAMITCGGYYVGVKSLHWYQQKAGQAPVLVVHDDSDRPSGIPERFSGSKSGDTATLIISRVEAGDEADYYCQVWDRDSDHPYVFGTGTTVTVL", "values": [
      {"measurement": "IC50, plaque neutralization", "setting": "[5]", "value": 0.008, "unit": "µg/mL"},
      {"measurement": "IC50, plaque neutralization", "setting": "[6]", "value": 0.018, "unit": "µg/mL"},
      {"measurement": "EC50", "setting": "hMPV A1 F [1]", "value": 0.25, "unit": "µg/mL"},
      {"measurement": "EC50", "setting": "hMPV A2 F [2]", "value": 0.44, "unit": "µg/mL"},
      {"measurement": "EC50", "setting": "hMPV B1 F [3]", "value": 0.2, "unit": "µg/mL"}
    ]},
    {"binder": "MPE8 (antibody, V domains shown, also called mAb MPE8; MPE8 antibody) VH: EVQLVESGGGLVKPGGSLRLSCAASGFTFSSYSMNWVRQAPGKGLEWVSSISASSSYSDYADSAKGRFTISRDNAKTSLFLQMNSLRAEDTAIYFCARARATGYSSITPYFDIWGQGTLVTVSS VL: QSVVTQPPSVSGAPGQRVTISCTGSSSNIGAGYDVHWYQQLPGTAPKLLIYDNNNRPSGVPDRFSASKSGTSASLAITGLQAEDEADYYCQSYDRSLSGVFGTGTKVTVL", "values": [
      {"measurement": "EC50", "setting": "hMPV B2 F GCN4", "value": 4.7, "unit": "µg/mL"},
      {"measurement": "EC50", "setting": "hMPV A1 F [7]", "value": 14, "unit": "µg/mL"},
      {"measurement": "EC50", "setting": "hMPV A2 F [8]", "value": 4.3, "unit": "µg/mL"},
      {"measurement": "EC50", "setting": "hMPV B1 F [9]", "value": 3.1, "unit": "µg/mL"},
      {"measurement": "EC50", "setting": "hMPV B2 F [10]", "value": 36, "unit": "µg/mL"},
      {"measurement": "EC50", "setting": "hMPV B2 F-GCN4 dFP 6R", "value": 5.9, "unit": "µg/mL"},
      {"measurement": "EC50", "setting": "hMPV 130-BV", "value": 1.8, "unit": "µg/mL"}
    ]},
    {"binder": "MPV196 (antibody, V domains shown, also called mAb MPV196) VH: QVQLQQWGAGLLKPSETLSLTCAVYGGSFSGYSWTWIRQPPGKGLEWIGEINHSGSTNYNPSLKSRVTISIDTSRNQFSLKLISVTAADTAVYYCARGVRGGYNLWHFDVWGQGTLVTVSS VL: SYELSQSPSVSVSPGQTARITCSGDKLGNKYASWYQQKPGQSPVLVIYQDDKRPSGIPERFSGSNSGNTATLTIGGTQAMDEADYSCQAWDGRTAVVFGGGTKLTVL", "values": [
      {"measurement": "EC50", "setting": "hMPV B2 F GCN4", "value": 0.18, "unit": "µg/mL"},
      {"measurement": "EC50", "setting": "hMPV A1 F [7]", "value": 0.27, "unit": "µg/mL"},
      {"measurement": "EC50", "setting": "hMPV A2 F [8]", "value": 0.17, "unit": "µg/mL"},
      {"measurement": "EC50", "setting": "hMPV B1 F [9]", "value": 0.12, "unit": "µg/mL"},
      {"measurement": "EC50", "setting": "hMPV B2 F [10]", "value": 0.44, "unit": "µg/mL"},
      {"measurement": "EC50", "setting": "hMPV B2 F-GCN4 dFP 6R", "value": 0.15, "unit": "µg/mL"},
      {"measurement": "EC50", "setting": "hMPV A1 F [1]", "value": 0.15, "unit": "µg/mL"},
      {"measurement": "EC50", "setting": "hMPV A2 F [2]", "value": 0.204, "unit": "µg/mL"},
      {"measurement": "EC50", "setting": "hMPV B1 F [3]", "value": 0.077, "unit": "µg/mL"},
      {"measurement": "EC50", "setting": "hMPV B2 F [4]", "value": 0.136, "unit": "µg/mL"},
      {"measurement": "EC50", "setting": "[11]", "value": 0.17, "unit": "µg/mL"},
      {"measurement": "EC50", "setting": "[12]", "value": 0.091, "unit": "µg/mL"},
      {"measurement": "EC50", "setting": "hMPV 130-BV", "value": 0.14, "unit": "µg/mL"}
    ]},
    {"binder": "MPV458 (antibody, V domains shown, also called mAb MPV458; MPV458 IgG) VH: QGKLVESGGGVIQPGRSLRLSCAASGFDFSRYGLHWVRQAPGKGLEWVAVIVYAGSNKYYADSVKGRFTISKDNSKNTMHLQMSDLRTEDTAVYYCARDQAFDLWGQGTMVTVSS VL: DIQMTQSPASLSASVGDRVTITCQASQGISRSVNWYQQKPGKAPKLLIFDASHLERGVPSRFSGSGYGTDFTFTISSLQPEDIATYYCQQYDNLRISFGQGTRLEIK", "values": [
      {"measurement": "EC50", "setting": "hMPV B2 F GCN4", "value": 0.2, "unit": "µg/mL"},
      {"measurement": "EC50", "setting": "hMPV A1 F [7]", "value": 0.75, "unit": "µg/mL"},
      {"measurement": "EC50", "setting": "hMPV A2 F [8]", "value": 0.39, "unit": "µg/mL"},
      {"measurement": "EC50", "setting": "hMPV B1 F [9]", "value": 0.39, "unit": "µg/mL"},
      {"measurement": "EC50", "setting": "hMPV B2 F [10]", "value": 0.6, "unit": "µg/mL"},
      {"measurement": "EC50", "setting": "hMPV B2 F-GCN4 dFP 6R", "value": 0.37, "unit": "µg/mL"},
      {"measurement": "50% inhibitory concentration (IC50), plaque neutralization", "setting": "[5]", "value": 0.033, "unit": "µg/mL"},
      {"measurement": "50% inhibitory concentration (IC50), plaque neutralization", "setting": "[6]", "value": 0.49, "unit": "µg/mL"},
      {"measurement": "fold EC50, monomeric against trimeric hMPV B2 F", "setting": "[13]", "value": "~4", "unit": "fold lower"},
      {"measurement": "EC50", "setting": "[14]", "value": 0.9, "unit": "µg/mL"},
      {"measurement": "EC50", "setting": "[15]", "value": 0.25, "unit": "µg/mL"},
      {"measurement": "EC50", "setting": "hMPV 130-BV", "value": 0.24, "unit": "µg/mL"}
    ]}
  ]
}
